The target in one assay is T1, human DPP4 (human, UniProt P27487 1-766).
T1 construct: whole, on cells; Transiently expressed in HEK cells; also called hDPP4; dipeptidyl peptidase IV
The assay can be described thus: IgG staining of HEK cells transiently expressing the construct. From the text:
The constructs were designed on the DPP4 backbone and different FAP fragments were introduced to replace the corresponding DPP4 fragment as shown in FIG. 13D. BFP was used as a marker of transfection and His-tag to confirm expression.
The constructs were transiently expressed in HEK cells and the different IgGs were used to stain the cells.

In assay [1] the target is T2, human FAP (fibroblast activation protein) (human, UniProt Q12884 26-760, limits assumed).
T2 construct: Protein immobilised on the CM5 chip or premixed with Fab in SPR; also called huFAP; hFAP
T2 sequence: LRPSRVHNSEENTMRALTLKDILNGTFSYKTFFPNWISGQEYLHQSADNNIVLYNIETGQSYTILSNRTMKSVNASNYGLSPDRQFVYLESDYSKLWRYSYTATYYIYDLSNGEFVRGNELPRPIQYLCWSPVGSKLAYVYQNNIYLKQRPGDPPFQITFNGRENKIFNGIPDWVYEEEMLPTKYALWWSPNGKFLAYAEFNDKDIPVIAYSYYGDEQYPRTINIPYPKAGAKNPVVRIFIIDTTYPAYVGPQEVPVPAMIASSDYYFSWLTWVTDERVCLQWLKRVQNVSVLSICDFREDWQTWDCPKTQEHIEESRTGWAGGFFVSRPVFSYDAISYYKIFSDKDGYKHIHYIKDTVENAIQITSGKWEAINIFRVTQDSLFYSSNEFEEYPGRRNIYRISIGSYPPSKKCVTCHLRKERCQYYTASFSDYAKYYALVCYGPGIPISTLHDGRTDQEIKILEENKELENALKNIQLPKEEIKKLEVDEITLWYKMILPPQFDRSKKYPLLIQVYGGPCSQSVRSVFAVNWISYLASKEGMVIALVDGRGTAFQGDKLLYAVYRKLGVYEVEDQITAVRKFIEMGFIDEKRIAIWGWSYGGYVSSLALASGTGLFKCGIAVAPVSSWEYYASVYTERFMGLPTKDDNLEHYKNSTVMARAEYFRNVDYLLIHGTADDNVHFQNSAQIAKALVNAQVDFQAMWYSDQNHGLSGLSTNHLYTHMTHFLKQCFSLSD
The assay can be described thus: SPR (Biacore), human FAP immobilised on CM5 chip by amine coupling, Fab as analyte, 2-fold dilution series from 500 nM. The procedure:
(§1) 2.5 μg/mL human FAP was immobilized to flow cells 1-4 on CM5 chip by amine coupling. […] 5 μg/mL mouse FAP was immobilized to flow cells 5-8 on CM5 chip by amine coupling. […] Regeneration was done with 2.5 mM NaOH, 1M NaCl.
A general note: SPR reads the build-up and loss of mass on a sensor chip optically.

The next assay addresses T3, mouse FAP (mouse, UniProt P97321 26-761, limits assumed).
T3 construct: Protein immobilised on the CM5 chip in SPR
T3 sequence (looked up): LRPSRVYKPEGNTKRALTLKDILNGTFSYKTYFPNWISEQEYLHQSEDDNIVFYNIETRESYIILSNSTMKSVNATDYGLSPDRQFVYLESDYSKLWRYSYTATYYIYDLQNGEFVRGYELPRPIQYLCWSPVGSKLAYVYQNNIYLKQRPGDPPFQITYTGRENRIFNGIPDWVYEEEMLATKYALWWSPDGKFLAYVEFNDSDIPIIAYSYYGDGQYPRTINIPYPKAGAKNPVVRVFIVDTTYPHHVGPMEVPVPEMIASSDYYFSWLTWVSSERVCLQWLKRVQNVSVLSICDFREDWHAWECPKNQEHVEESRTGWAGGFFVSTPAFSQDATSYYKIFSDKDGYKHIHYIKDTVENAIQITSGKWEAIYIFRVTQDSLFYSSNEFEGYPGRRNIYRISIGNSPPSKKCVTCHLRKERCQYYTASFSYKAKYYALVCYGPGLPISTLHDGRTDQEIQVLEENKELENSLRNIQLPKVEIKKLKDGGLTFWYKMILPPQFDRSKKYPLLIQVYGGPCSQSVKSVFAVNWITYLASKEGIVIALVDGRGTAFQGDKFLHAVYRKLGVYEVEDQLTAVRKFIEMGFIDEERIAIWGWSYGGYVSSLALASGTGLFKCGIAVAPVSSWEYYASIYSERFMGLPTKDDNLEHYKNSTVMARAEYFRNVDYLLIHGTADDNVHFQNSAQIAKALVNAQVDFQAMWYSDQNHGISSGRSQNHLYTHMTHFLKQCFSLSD
The assay can be described thus: SPR (Biacore), mouse FAP immobilised on CM5 chip by amine coupling, Fab as analyte, 2-fold dilution series from 500 nM. The procedure:
as §1

T1 sequence (P27487 whole entry): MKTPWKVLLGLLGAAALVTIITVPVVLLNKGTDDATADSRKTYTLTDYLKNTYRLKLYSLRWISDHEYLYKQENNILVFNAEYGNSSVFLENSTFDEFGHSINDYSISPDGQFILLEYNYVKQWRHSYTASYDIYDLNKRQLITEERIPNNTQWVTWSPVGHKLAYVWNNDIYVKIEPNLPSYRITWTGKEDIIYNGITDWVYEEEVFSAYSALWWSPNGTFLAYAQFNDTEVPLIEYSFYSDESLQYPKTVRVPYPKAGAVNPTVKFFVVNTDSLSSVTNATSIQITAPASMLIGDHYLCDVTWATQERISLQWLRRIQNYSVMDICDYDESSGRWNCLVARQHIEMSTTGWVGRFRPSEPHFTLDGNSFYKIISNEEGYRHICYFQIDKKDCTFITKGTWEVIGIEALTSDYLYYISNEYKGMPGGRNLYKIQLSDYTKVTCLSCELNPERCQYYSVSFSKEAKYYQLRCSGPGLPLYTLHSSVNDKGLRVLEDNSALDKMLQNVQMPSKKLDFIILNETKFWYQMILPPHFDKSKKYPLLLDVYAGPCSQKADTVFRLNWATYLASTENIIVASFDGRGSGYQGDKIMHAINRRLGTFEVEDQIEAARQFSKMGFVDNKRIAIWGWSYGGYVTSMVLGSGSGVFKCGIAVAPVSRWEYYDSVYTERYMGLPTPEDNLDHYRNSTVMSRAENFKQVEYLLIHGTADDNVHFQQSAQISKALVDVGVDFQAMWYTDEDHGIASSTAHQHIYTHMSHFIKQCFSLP

B1: E07 IgG (antibody, V domains shown)
VH: EVQLLESGGGLVQPGGSLRLSCAASGFTFKSYVMSWVRQAPGKGLEWVSAIVPSGGDTYYADSVKGRFTISRDNSKNTLYLQMNSLRAEDTAVYYCAKDYYGGWFDPWGQGTLVTVSS
VL: not shown
In the case of B1, the binding result with human DPP4 is recorded as “no binding”.

B2: A07 Fab (Fab, V domains shown)
VH: QVQLVQSGAEVKKPGSSVKVSCKASGGTFSSYAISWVRQAPGQGLEWMGGIIPIFGTANYAQKFQGRVTITADESTSTAYMELSSLRSEDTAVYYCASPRDCSSTSCYAGIDAFDIWGQGTMVTVSS
VL: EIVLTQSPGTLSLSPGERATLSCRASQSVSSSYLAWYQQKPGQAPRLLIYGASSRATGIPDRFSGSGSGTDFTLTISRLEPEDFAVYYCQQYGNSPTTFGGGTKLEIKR
In general, Kd refers to the free concentration of one partner at which half of the binding sites on the other are occupied at equilibrium, for simple one-to-one binding. For B2, the Kd in assay [1] amounted to 757 nM; in the assay with mouse FAP it was 330 nM.

These data come from patent publication US20260124303A1 (MINK THERAPEUTICS, published 2026).
